The values below come from article doi:10.1101/2025.11.17.688911.

The target of the experiment is full-length (FL) human MAP9 (GFP::Human MAP9::strepII) (human) (UniProt Q49MG5).
full-length (FL) human MAP9 (GFP::Human MAP9::strepII) (human), sequence (Q49MG5 whole entry): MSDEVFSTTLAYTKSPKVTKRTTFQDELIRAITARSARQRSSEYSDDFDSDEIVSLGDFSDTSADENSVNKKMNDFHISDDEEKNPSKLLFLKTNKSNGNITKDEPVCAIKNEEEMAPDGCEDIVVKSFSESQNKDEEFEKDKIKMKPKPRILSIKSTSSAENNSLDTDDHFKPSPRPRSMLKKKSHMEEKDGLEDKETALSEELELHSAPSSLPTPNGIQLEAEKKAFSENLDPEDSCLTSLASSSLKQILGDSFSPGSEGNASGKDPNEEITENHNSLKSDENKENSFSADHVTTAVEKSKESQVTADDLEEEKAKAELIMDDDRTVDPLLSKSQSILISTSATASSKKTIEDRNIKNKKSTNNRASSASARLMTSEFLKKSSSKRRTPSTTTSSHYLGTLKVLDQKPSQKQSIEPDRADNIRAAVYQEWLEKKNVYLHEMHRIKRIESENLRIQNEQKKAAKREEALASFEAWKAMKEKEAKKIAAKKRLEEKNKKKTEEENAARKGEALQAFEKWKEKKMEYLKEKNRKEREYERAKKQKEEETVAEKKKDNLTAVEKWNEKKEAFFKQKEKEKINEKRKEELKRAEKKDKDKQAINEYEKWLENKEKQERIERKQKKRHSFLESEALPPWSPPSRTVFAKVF

As to “FL KIF1A (Human KIF1A::yBBR::strepII) (from UniProt Q12756 1-1690) (natural protein)”, the run frequency of FL KIF1A on MTs decorated with MAP9 at low concentrations (<60 nM); slightly inhibited at higher concentrations came to 2 fold.
